Assay in all cases: EMSA
For orientation: In EMSA bound probe runs differently from free probe, usually more slowly.

One series deals with IPMK (human, UniProt Q8NFU5 1-416).
The target of series [1] is T1, SRF (His-SRF);Elk1 (GST-His-Elk1) (human;human, UniProt P11831;P19419 1-508;1-428, |).
T1 sequence 1: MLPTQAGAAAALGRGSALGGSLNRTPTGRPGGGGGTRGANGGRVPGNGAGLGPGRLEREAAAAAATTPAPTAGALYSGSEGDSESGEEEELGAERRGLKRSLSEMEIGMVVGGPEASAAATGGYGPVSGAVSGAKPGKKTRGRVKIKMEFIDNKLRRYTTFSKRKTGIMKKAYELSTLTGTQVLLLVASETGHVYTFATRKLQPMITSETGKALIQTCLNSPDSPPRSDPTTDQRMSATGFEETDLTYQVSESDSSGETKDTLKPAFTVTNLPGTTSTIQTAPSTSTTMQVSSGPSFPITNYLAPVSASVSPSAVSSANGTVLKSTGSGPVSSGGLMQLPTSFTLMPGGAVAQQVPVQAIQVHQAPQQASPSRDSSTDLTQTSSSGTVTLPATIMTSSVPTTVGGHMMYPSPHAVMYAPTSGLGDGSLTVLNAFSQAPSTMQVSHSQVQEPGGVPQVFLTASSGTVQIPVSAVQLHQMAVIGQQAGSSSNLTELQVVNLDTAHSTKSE
T1 sequence 2: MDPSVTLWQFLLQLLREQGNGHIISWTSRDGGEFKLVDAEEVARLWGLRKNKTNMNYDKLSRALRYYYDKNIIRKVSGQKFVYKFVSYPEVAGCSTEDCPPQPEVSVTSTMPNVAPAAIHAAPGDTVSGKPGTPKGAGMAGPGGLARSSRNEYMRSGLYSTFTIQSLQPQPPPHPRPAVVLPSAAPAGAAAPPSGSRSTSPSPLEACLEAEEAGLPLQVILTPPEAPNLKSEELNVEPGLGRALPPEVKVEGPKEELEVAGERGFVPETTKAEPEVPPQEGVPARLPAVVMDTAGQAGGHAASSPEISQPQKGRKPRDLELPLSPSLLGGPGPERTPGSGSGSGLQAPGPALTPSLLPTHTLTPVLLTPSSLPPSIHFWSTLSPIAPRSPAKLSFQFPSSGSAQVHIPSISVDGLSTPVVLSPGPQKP

In the next series the target is T2, SRF (His-SRF) (human, UniProt P11831 1-508).
T2 sequence: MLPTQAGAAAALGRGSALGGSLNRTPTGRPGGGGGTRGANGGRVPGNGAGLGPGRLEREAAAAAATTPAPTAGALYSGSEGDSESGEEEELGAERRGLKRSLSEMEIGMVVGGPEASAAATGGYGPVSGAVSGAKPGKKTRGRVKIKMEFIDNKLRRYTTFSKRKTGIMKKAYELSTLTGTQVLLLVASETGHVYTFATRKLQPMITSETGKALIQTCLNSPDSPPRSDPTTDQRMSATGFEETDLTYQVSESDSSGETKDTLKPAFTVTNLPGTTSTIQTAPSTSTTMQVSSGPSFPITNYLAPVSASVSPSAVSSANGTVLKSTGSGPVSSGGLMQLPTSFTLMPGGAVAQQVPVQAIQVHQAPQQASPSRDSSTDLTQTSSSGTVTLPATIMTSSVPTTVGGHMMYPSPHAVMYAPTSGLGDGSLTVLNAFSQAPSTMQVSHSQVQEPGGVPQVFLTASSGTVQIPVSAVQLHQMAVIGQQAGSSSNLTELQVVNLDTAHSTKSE

Chain of IPMK (Q8NFU5 whole entry): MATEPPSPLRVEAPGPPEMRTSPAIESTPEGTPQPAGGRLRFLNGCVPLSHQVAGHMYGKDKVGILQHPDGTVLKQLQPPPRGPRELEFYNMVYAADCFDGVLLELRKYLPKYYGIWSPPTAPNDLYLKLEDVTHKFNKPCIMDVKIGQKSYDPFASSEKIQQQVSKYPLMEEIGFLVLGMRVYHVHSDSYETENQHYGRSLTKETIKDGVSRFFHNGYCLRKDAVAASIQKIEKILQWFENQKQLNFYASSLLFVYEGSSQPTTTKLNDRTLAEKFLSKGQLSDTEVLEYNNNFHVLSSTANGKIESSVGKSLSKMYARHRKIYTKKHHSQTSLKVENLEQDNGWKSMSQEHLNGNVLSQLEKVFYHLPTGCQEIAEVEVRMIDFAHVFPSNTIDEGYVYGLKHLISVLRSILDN

B1: c-fos SRE EMSA probe (dsDNA)
DNA 1: CTAAGCTTGCTGACGCAGATGTCCTAATATGGACATCCTGTCCCGGGGA
DNA 2: TCCCCGGGACAGGATGTCCATATTAGGACATCTGCGTCAGCAAGCTTAG
Regarding B1, the binding result with IPMK is recorded as “no binding”; in series [1], “binds”; with SRF (His-SRF), “binds”.

The values are drawn from article PMC11704961.
